# Laboratory results from PMC7060837.
# T1: katanin MEI-1/MEI-2 (wild type) (C. elegans) (UniProt P34808)
# T1 sequence 1: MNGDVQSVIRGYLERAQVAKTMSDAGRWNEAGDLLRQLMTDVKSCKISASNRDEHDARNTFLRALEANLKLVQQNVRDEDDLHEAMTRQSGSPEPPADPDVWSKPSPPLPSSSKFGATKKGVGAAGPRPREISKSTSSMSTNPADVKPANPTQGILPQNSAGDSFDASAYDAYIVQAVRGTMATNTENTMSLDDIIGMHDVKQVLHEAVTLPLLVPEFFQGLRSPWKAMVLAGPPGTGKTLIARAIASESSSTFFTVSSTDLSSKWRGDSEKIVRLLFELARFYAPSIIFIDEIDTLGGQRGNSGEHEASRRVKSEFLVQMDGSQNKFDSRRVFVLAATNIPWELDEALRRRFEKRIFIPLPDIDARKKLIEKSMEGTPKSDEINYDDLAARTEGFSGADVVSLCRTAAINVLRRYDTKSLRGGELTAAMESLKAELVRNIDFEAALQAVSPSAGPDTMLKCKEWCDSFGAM
# T1 sequence 2: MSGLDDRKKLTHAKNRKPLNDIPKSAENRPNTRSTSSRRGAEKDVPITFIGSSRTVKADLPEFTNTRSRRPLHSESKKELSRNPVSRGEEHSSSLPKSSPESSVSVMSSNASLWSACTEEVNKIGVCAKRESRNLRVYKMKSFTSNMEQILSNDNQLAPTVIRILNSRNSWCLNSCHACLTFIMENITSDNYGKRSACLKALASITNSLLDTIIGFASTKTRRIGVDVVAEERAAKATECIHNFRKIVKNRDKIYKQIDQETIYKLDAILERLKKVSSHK
# B1: βI-tubulin tail peptide (peptide)
# peptide: DATAEEEEDFGEEAEEEA
# B2: katanin MEI-1/MEI-2 mutant Glu308 to alanine (complex)
# chain 1: MNGDVQSVIRGYLERAQVAKTMSDAGRWNEAGDLLRQLMTDVKSCKISASNRDEHDARNTFLRALEANLKLVQQNVRDEDDLHEAMTRQSGSPEPPADPDVWSKPSPPLPSSSKFGATKKGVGAAGPRPREISKSTSSMSTNPADVKPANPTQGILPQNSAGDSFDASAYDAYIVQAVRGTMATNTENTMSLDDIIGMHDVKQVLHEAVTLPLLVPEFFQGLRSPWKAMVLAGPPGTGKTLIARAIASESSSTFFTVSSTDLSSKWRGDSEKIVRLLFELARFYAPSIIFIDEIDTLGGQRGNSGEHAASRRVKSEFLVQMDGSQNKFDSRRVFVLAATNIPWELDEALRRRFEKRIFIPLPDIDARKKLIEKSMEGTPKSDEINYDDLAARTEGFSGADVVSLCRTAAINVLRRYDTKSLRGGELTAAMESLKAELVRNIDFEAALQAVSPSAGPDTMLKCKEWCDSFGAM
# chain 2: MSGLDDRKKLTHAKNRKPLNDIPKSAENRPNTRSTSSRRGAEKDVPITFIGSSRTVKADLPEFTNTRSRRPLHSESKKELSRNPVSRGEEHSSSLPKSSPESSVSVMSSNASLWSACTEEVNKIGVCAKRESRNLRVYKMKSFTSNMEQILSNDNQLAPTVIRILNSRNSWCLNSCHACLTFIMENITSDNYGKRSACLKALASITNSLLDTIIGFASTKTRRIGVDVVAEERAAKATECIHNFRKIVKNRDKIYKQIDQETIYKLDAILERLKKVSSHK
# B3: katanin MEI-1/MEI-2 mutant R267A (complex)
# chain 1: MNGDVQSVIRGYLERAQVAKTMSDAGRWNEAGDLLRQLMTDVKSCKISASNRDEHDARNTFLRALEANLKLVQQNVRDEDDLHEAMTRQSGSPEPPADPDVWSKPSPPLPSSSKFGATKKGVGAAGPRPREISKSTSSMSTNPADVKPANPTQGILPQNSAGDSFDASAYDAYIVQAVRGTMATNTENTMSLDDIIGMHDVKQVLHEAVTLPLLVPEFFQGLRSPWKAMVLAGPPGTGKTLIARAIASESSSTFFTVSSTDLSSKWAGDSEKIVRLLFELARFYAPSIIFIDEIDTLGGQRGNSGEHEASRRVKSEFLVQMDGSQNKFDSRRVFVLAATNIPWELDEALRRRFEKRIFIPLPDIDARKKLIEKSMEGTPKSDEINYDDLAARTEGFSGADVVSLCRTAAINVLRRYDTKSLRGGELTAAMESLKAELVRNIDFEAALQAVSPSAGPDTMLKCKEWCDSFGAM
# chain 2: MSGLDDRKKLTHAKNRKPLNDIPKSAENRPNTRSTSSRRGAEKDVPITFIGSSRTVKADLPEFTNTRSRRPLHSESKKELSRNPVSRGEEHSSSLPKSSPESSVSVMSSNASLWSACTEEVNKIGVCAKRESRNLRVYKMKSFTSNMEQILSNDNQLAPTVIRILNSRNSWCLNSCHACLTFIMENITSDNYGKRSACLKALASITNSLLDTIIGFASTKTRRIGVDVVAEERAAKATECIHNFRKIVKNRDKIYKQIDQETIYKLDAILERLKKVSSHK
# B4: katanin MEI-1/MEI-2 mutant W266A (complex)
# chain 1: MNGDVQSVIRGYLERAQVAKTMSDAGRWNEAGDLLRQLMTDVKSCKISASNRDEHDARNTFLRALEANLKLVQQNVRDEDDLHEAMTRQSGSPEPPADPDVWSKPSPPLPSSSKFGATKKGVGAAGPRPREISKSTSSMSTNPADVKPANPTQGILPQNSAGDSFDASAYDAYIVQAVRGTMATNTENTMSLDDIIGMHDVKQVLHEAVTLPLLVPEFFQGLRSPWKAMVLAGPPGTGKTLIARAIASESSSTFFTVSSTDLSSKARGDSEKIVRLLFELARFYAPSIIFIDEIDTLGGQRGNSGEHEASRRVKSEFLVQMDGSQNKFDSRRVFVLAATNIPWELDEALRRRFEKRIFIPLPDIDARKKLIEKSMEGTPKSDEINYDDLAARTEGFSGADVVSLCRTAAINVLRRYDTKSLRGGELTAAMESLKAELVRNIDFEAALQAVSPSAGPDTMLKCKEWCDSFGAM
# chain 2: MSGLDDRKKLTHAKNRKPLNDIPKSAENRPNTRSTSSRRGAEKDVPITFIGSSRTVKADLPEFTNTRSRRPLHSESKKELSRNPVSRGEEHSSSLPKSSPESSVSVMSSNASLWSACTEEVNKIGVCAKRESRNLRVYKMKSFTSNMEQILSNDNQLAPTVIRILNSRNSWCLNSCHACLTFIMENITSDNYGKRSACLKALASITNSLLDTIIGFASTKTRRIGVDVVAEERAAKATECIHNFRKIVKNRDKIYKQIDQETIYKLDAILERLKKVSSHK
# B5: katanin MEI-1/MEI-2 Arg128Arg130Lys134Ala triple mutant (complex)
# chain 1: MNGDVQSVIRGYLERAQVAKTMSDAGRWNEAGDLLRQLMTDVKSCKISASNRDEHDARNTFLRALEANLKLVQQNVRDEDDLHEAMTRQSGSPEPPADPDVWSKPSPPLPSSSKFGATKKGVGAAGPAPAEISASTSSMSTNPADVKPANPTQGILPQNSAGDSFDASAYDAYIVQAVRGTMATNTENTMSLDDIIGMHDVKQVLHEAVTLPLLVPEFFQGLRSPWKAMVLAGPPGTGKTLIARAIASESSSTFFTVSSTDLSSKWRGDSEKIVRLLFELARFYAPSIIFIDEIDTLGGQRGNSGEHEASRRVKSEFLVQMDGSQNKFDSRRVFVLAATNIPWELDEALRRRFEKRIFIPLPDIDARKKLIEKSMEGTPKSDEINYDDLAARTEGFSGADVVSLCRTAAINVLRRYDTKSLRGGELTAAMESLKAELVRNIDFEAALQAVSPSAGPDTMLKCKEWCDSFGAM
# chain 2: MSGLDDRKKLTHAKNRKPLNDIPKSAENRPNTRSTSSRRGAEKDVPITFIGSSRTVKADLPEFTNTRSRRPLHSESKKELSRNPVSRGEEHSSSLPKSSPESSVSVMSSNASLWSACTEEVNKIGVCAKRESRNLRVYKMKSFTSNMEQILSNDNQLAPTVIRILNSRNSWCLNSCHACLTFIMENITSDNYGKRSACLKALASITNSLLDTIIGFASTKTRRIGVDVVAEERAAKATECIHNFRKIVKNRDKIYKQIDQETIYKLDAILERLKKVSSHK
# B6: katanin MEI-1/MEI-2 mutant K265A (complex)
# chain 1: MNGDVQSVIRGYLERAQVAKTMSDAGRWNEAGDLLRQLMTDVKSCKISASNRDEHDARNTFLRALEANLKLVQQNVRDEDDLHEAMTRQSGSPEPPADPDVWSKPSPPLPSSSKFGATKKGVGAAGPRPREISKSTSSMSTNPADVKPANPTQGILPQNSAGDSFDASAYDAYIVQAVRGTMATNTENTMSLDDIIGMHDVKQVLHEAVTLPLLVPEFFQGLRSPWKAMVLAGPPGTGKTLIARAIASESSSTFFTVSSTDLSSAWRGDSEKIVRLLFELARFYAPSIIFIDEIDTLGGQRGNSGEHEASRRVKSEFLVQMDGSQNKFDSRRVFVLAATNIPWELDEALRRRFEKRIFIPLPDIDARKKLIEKSMEGTPKSDEINYDDLAARTEGFSGADVVSLCRTAAINVLRRYDTKSLRGGELTAAMESLKAELVRNIDFEAALQAVSPSAGPDTMLKCKEWCDSFGAM
# chain 2: MSGLDDRKKLTHAKNRKPLNDIPKSAENRPNTRSTSSRRGAEKDVPITFIGSSRTVKADLPEFTNTRSRRPLHSESKKELSRNPVSRGEEHSSSLPKSSPESSVSVMSSNASLWSACTEEVNKIGVCAKRESRNLRVYKMKSFTSNMEQILSNDNQLAPTVIRILNSRNSWCLNSCHACLTFIMENITSDNYGKRSACLKALASITNSLLDTIIGFASTKTRRIGVDVVAEERAAKATECIHNFRKIVKNRDKIYKQIDQETIYKLDAILERLKKVSSHK
# B7: βIVb-tubulin tail peptide (peptide)
# peptide: DATAEEEGEFEEEAEEEVA
# B8: α-tubulin tail peptide (peptide)
# peptide: VDSVEGEGEEEGEEY
# Legend:
# [1] = biological target: GMPCPP-stabilized microtubules of porcine brain tubulin (porcine) (UniProt P02550)
# [2] = biological target: T1, katanin MEI-1/MEI-2 (wild type) (C. elegans)
# [3] = biological target: T1, katanin MEI-1/MEI-2 (wild type) (C. elegans); remark: listed apart in the source
# [4] = biological target: katanin MEI-1/MEI-2 mutant Glu308 to alanine (C. elegans) (UniProt P34808)
# [5] = biological target: katanin MEI-1/MEI-2 mutant R267A (C. elegans) (UniProt P34808)
# [6] = biological target: taxol-stabilized brain microtubules (UniProt P02550)
# [7] = biological target: katanin MEI-1/MEI-2 mutant W266A (C. elegans) (UniProt P34808)
# [8] = biological target: GMPCPP-stabilized microtubules of porcine brain tubulin (porcine) (UniProt P02550); remark: listed apart in the source
# [9] = biological target: katanin MEI-1/MEI-2 mutant K265A (C. elegans) (UniProt P34808)
molecule,measurement,setting,value
Drosophila melanogaster spastin mutated in the N-terminal positively-charged cluster Arg110Lys111Lys117Arg118 (enzyme),"microtubule severing activity of spastin at 20 nM, reduction against wild type",[1],50%
βV-tail (peptide),"stimulation of katanin ATPase by the tail, weaker than βI and βIVb by",[2],30%
Drosophila melanogaster spastin with Arg159Arg160Arg166Arg172Arg174 mutated to alanine (enzyme),"microtubule severing activity of spastin at 20 nM, reduction against wild type",[1],70%
B1,maximal stimulation of katanin ATPase by the tail peptide (2 to 600 μM),[3],3.5 fold
B2,"basal ATPase, reduction against wild type",[4],87%
B3,"basal ATPase, reduction against wild type",[5],51%
same,"microtubule stimulated ATPase, reduction against wild type",[6],60%
B4,"basal ATPase, reduced (so in the source)",[7],59%
same,"microtubule stimulated ATPase, reduced (so in the source)",[6],64%
B5,"microtubule severing activity, reduction against wild type",[8],32%
same,"tubulin extraction (nanodamage) activity, reduction against wild type",[8],51%
B6,"microtubule stimulated ATPase, reduced (so in the source)",[6],58%
same,"basal ATPase, reduced (so in the source)",[9],42%
B7,maximal stimulation of katanin ATPase by the tail peptide (2 to 600 μM),[3],3.5 fold
B8,maximal stimulation of katanin ATPase by the tail peptide (2 to 600 μM),[3],2.2 fold
